In this assay the target is β2 subunit of human LFA-1 expressed in BAF/LFA-1 cells (human) (UniProt P05107). Description: co-IP; lysates of BAF/LFA-1 cells transfected with vector or Spa-1, ±CXCL12 for 1 min, immunoprecipitated with anti-β2, immunoblotted with anti-FLNa. A general note: In western blotting, separated proteins are transferred to a membrane and probed.
UniProt P05107, sequence (P05107 23-769): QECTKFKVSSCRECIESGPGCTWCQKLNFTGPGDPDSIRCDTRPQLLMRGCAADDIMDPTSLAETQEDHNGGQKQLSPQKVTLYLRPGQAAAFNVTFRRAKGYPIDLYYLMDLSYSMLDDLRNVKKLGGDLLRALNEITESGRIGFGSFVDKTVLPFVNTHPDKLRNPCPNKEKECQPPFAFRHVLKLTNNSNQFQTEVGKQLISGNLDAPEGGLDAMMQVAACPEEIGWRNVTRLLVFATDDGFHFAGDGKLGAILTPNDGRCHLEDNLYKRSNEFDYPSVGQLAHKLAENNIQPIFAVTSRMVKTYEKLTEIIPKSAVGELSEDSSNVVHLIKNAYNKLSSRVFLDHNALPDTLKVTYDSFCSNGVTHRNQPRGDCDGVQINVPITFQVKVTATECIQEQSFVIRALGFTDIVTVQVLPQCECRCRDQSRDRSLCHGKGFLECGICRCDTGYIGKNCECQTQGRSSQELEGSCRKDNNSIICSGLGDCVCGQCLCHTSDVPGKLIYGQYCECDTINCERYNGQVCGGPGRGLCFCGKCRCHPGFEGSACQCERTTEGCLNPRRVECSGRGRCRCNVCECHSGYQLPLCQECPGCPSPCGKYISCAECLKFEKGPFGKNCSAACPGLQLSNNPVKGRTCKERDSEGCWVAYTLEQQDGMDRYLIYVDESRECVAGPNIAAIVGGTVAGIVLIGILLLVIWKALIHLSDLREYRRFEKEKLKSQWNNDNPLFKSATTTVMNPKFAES

“endogenous FLNa of BAF/LFA-1 cells, Q8BTM8 1-2647” returned an FLNa co-precipitated with β2 after CXCL12 stimulation, Spa-1-expressing cells, percent of 64.7% and an FLNa co-precipitated with β2 after CXCL12 stimulation, control cells, percent of 25.2%.

Values taken from PMC4686857.
